Consider one molecule from patent US7563864B2, “Prolyl endopeptidase mediated destruction of T cell epitopes in whole gluten” (Celiac Sprue Research Foundation, priority 2004, dated 2009).

Data set [1] relates to TCC 370 E3.19. Kind of data set: T cell clone assay, α-III specific clone. It is filed as cell-based, human. Particulars: clone 370E3.19; FIGS. 6A and 6B. The protocol: (§1) Prolyl endopeptidase (PEP) and Brush Border Membrane (BBM) treatment—Recombinant PEP (Sp. Act ˜40 U/mg) was added at a ratio of 200 mU/mg of the PTC-digested gluten substrate, and incubated at 37° C. for 15 min to 1 h and then heat de-activated, depending on the sample. Subsequently BBM (65 mU (DPP IV activity)/mg substrate) was added and the mixture was incubated for 1 h and heat de-activated. Control samples contained PEP and BBM buffer solutions without the enzymes.
(§2) T cell assays—The generation of polyclonal gluten-specific T cell lines derived from ex vivo gluten challenged small intestinal biopsy specimens of adult Celiac Sprue patients have been described elsewhere. For this study 14 different intestinal T cell lines derived from 13 DQ2+celiac patients were selected based on two basic criteria; effective recognition of TG2-treated digests of gluten and significant responses to at least two different gluten epitopes (Table 2). The generation of intestinal T cell clones and the epitope specificity of these clones, except TCC 387.3, has been described elsewhere (10). The TCC 387.3 recognizes a TG2-dependent epitope, defined as γ-VI that is contained within residues 62-72 (PQQPFPQQPQQ) of recombinant γ-5 gliadin. […] The proliferation in the wells was evaluated by ^3H thymidine incorporation from 48-72 hours after the addition of the T cells.

The subject of data set [2] is polyclonal T cell lines derived from small intestinal biopsies of Celiac Sprue patients. Put plainly: T cell assays, 14 polyclonal T cell lines taken together. The format is cell-based, human. The settings on record: PEP in combination with gastric and pancreatic enzymes and brush border membrane enzymes; in most cases. The procedure: Gluten treatment with gastric and pancreatic enzymes—Wheat gluten flour (3.0 g) was added to 100 ml of water with addition of HCl to achieve a stable suspension at pH 2.0. Pepsin (Pepsin NF powder, 1:10000, 60 mg) was mixed in to the gluten suspension and the gluten-pepsin mixture was shaken constantly at 37° C. for 2 h. After the pepsin treatment had been completed, 350 mg of Na2HPO4 were added and the pH adjusted to 7.9 by addition of 0.1 M NaOH. Trypsin/Chymotrypsin (38 mg) were added and the mixture was shaken again at 37° C. for 2 h and then heated to >95° C. for 10 min. After cooling to room temperature, 74 μL of the mixture was treated with Elastase (20 μL, 1 mg/ml) and the mixture was diluted to 1.7 mg/ml using PBS buffer, pH=7.5. The mixture was maintained at 37° C. After 2 h the digested gluten suspension was heated to 95° C. for 10 minutes and cooled to room temperature. After this, 20 μL of Carboxypeptidase A were added and incubated for 2 h at 37° C., and subsequently heat deactivated. […]
T cell assays—The generation of polyclonal gluten-specific T cell lines derived from ex vivo gluten challenged small intestinal biopsy specimens of adult Celiac Sprue patients have been described elsewhere. […] The proliferation in the wells was evaluated by ^3H thymidine incorporation from 48-72 hours after the addition of the T cells.

The test system of data set [3] is TCC 387 E9. Put plainly: T cell clone assay, α-I specific clone. The settings on record: clone 387E9; FIGS. 6A and 6B; after 60 min PEP treatment. The format is cell-based, human. The protocol: as §1, §2
The test system of data set [4] is TCC 387.3. Put plainly: T cell clone assay, γ-VI specific clone. The format is cell-based, human. The settings on record: FIG. 6B. The protocol:
as §1, §2

Data set [5] can be described thus: PEP activity assay. Particulars: recombinant PEP; pH 7.5, 37° C. It is filed as biochemical. The protocol: Carboxypeptidase A: 995 μL 1.0 mM Hippuryl-L-Phe in 25 mM Tris and 500 mM NaCl, pH 7.5 was mixed with 5 μL Carboxypeptidase A (0.2 mg/ml). Absorption at 254 nm was recorded for 2′, every 10″. One unit hydrolyzes 1 μmol of Hippuryl-L-Phe per min at pH 7.5 and 25° C. Extinction coefficient 0.36 cm^2/μmol at 254 nm. PEP: To 10 μL Z-Gly-Pro-p-Nitroanilide 16.8 mg/ml in dioxane were added 70 μL dioxane, 120 μL water and 800 μL PBS buffer. This substrate solution was incubated at 37° C. for 10′; then 0.2-2 μL PEP were added and the absorption at 410 nm was recorded for 2′, every 10″. One unit hydrolyzes 1 μmol of Z-Gly-Pro-p-Nitroanilide per min at pH 7.5 and 37° C. Extinction coefficient 8.8 cm^2/μmol at 410 nm.

Data set [6] has as its system T cell clone 430.1.135. Put plainly: T cell clone assay, α-II specific clone. The format is cell-based, human. The settings on record: FIGS. 6A and 6B. The protocol: as §1, §2

B1: PEP: Recombinant prolyl endopeptidase, Flavobacterium meningosepticum enzyme (protein, UniProt P27028 21-705, looked up)
Prolyl endopeptidase: QNSNVLKYPETKKVSHTDTYFGTQVSDPYRWLEDDRAEDTKAWVQQEVKFTQDYLAQIPFRDQLKKQLMDIWNYEKISAPFKKGKYTYFSKNDGLQAQSVLYRKDAAGKTEVFLDPNKFSEKGTTSLASVSFNKKGTLVAYSISEGGSDWNKIIILDAETKKQLDETLLDVKFSGISWLGDEGFFYSSYDKPKEGSVLSGMTDKHKVYFHKLGTKQSQDELIIGGDKFPRRYIGAYVTDDQRYLVVSAANATNGNELYIKDLKNKTDFIPIITGFDSNVNVADTDGDTLYLFTDKDAPNKRLVKTTIQNPKAETWKDVIAETSEPLEINTGGGYFFATYMKDAIDQVKQYDKNGKLVRAIKLPGSGNASGFGGEKTEKDLYYSFTNYITPPTIFKYNVTTGNSEVYQKPKVKFNPENYVSEQVFYTSSDGTKIPMMISYKKGLKKDGKNPTILYSYGGFNISLQPAFSVVNAIWMENGGIYAVPNIRGGGEYGKKWHDAGTKMQKKNVFNDFIAAGEYLQKNGYTSKEYMALSGRSNGGLLVGATMTMRPDLAKVAFPGVGVLDMLRYNKFTAGAGWAYDYGTAEDSKEMFEYLKSYSPVHNVKAGTCYPSTMVITSDHDDRVVPAHSFKFGSELQAKQSCKNPILIRIETNAGHGAGRSTEQVVAENADLLSFALYEMGIKSLK
Regarding B1, in data set [1], the “T cell clone response to treated gluten: destruction of the α-III epitope” value is given as “almost completely destroyed at the earliest time point”. For the same molecule, the “immune response of patient derived intestinal T cells, relative to the response induced by positive controls” value in data set [2] is “less than 2%”. Moreover, the “T cell clone response to treated gluten: destruction of the α-I epitope” value in data set [3] is on record as “retains some activity”. For the same molecule, the “T cell clone response to treated gluten: destruction of the γ-VI epitope” value in data set [4] is “persist for longer durations”. For the same molecule, the “specific activity (Sp. Act)” value in data set [5] is listed as ~40 U/mg. For the same molecule, in data set [6], the “T cell clone response to treated gluten: destruction of the α-II epitope” value is “almost completely destroyed at the earliest time point”.
